Test [1] has as its target endogenous UHRF1-GFP (Uhrf1 locus tagged with GFP in mouse ESCs) (mouse (endogenous in J1 ESCs)) (UniProt Q8VDF2).
The target in test [2] is T1, mUHRF1 C-terminally tagged with GFP- and 6xHis-tag (mouse, UniProt Q8VDF2 1-782).
T1 construct: UHRF1, mouse (mUHRF1); also called UHRF1-eGFP; recombinant UHRF1-GFP; source: HEK 293T cells, purified (Ni-NTA beads); not shown: GFP, C-terminal, kept
T1 sequence (looked up): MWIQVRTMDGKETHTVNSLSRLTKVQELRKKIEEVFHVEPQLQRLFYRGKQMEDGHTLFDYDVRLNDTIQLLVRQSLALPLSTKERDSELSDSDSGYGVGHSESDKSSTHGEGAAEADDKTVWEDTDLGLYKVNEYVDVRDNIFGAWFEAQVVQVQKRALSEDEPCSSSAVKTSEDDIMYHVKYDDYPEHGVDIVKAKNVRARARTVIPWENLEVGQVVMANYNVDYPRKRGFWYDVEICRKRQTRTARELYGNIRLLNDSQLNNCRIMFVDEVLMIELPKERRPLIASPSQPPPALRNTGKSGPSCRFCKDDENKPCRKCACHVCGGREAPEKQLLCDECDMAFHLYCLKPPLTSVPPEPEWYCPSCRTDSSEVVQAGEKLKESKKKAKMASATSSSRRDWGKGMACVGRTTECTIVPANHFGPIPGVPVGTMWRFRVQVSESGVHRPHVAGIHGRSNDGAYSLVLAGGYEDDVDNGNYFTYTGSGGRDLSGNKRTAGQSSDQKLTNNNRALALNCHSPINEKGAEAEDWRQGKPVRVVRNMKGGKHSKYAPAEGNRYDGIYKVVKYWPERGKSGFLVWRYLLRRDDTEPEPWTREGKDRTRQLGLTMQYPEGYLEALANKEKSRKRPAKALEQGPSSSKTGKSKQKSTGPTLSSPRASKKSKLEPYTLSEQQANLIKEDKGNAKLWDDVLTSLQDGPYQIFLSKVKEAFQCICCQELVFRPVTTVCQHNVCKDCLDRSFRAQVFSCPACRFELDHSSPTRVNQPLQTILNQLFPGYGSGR
Kind of test: MST; 200 nM UHRF1-GFP-6xHis mixed with 0.15 nM to 5 µM GST-DPPA3, 30 min on ice; Monolith NT.115, 80% LED and 80% MST power. The following applies: both partners purified.

In the case of “DPPA3-KRR-mScarlet (K85E/R85E/R87E as printed) (from UniProt Q8QZY3 1-150) (natural protein)”, the mobile fraction of UHRF1-GFP by RICS in live ESCs expressing DPPA3-KRR in test [1] came out at 32.4%.

B1: GST-mDPPA3 wild-type (natural protein, mouse, UniProt Q8QZY3 1-150, looked up)
chain: MEEPSEKVDPMKDPETPQKKDEEDALDDTDVLQPETLVKVMKKLTLNPGVKRSARRRSLRNRIAAVPVENKSEKIRREVQSAFPKRRVRTLLSVLKDPIAKMRRLVRIEQRQKRLEGNEFERDSEPFRCLCTFCHYQRWDPSENAKIGKN
notes: DPPA3, mouse, fragment corresponding to the full-length protein amplified from mouse DPPA3 cDNA, in pGEX4T-3; also called GST-DPPA3 WT; D3^WT; source: E. coli BL21-CodonPlus, purified (Glutathione Sepharose, PD10 desalting)
B1 showed a Kd in test [2] of 440 nM.

For orientation: Kd means a measure of binding affinity in units of concentration.

The values are drawn from publication PMC7686362, “Recent evolution of a TET-controlled and DPPA3/STELLA-driven pathway of passive DNA demethylation in mammals” (Nature Communications, 2020).
